Data published in patent US20250313864, “TYPE V CAS PROTEINS AND APPLICATIONS THEREOF” (Alia Therapeutics Srl, published 2025).

Experiments:
Test in all cases: cell_activity; PAM TTTA; U2OS; with at least one of g1/g2, which one not given
Details in all cases: tags: V5 tag, C-terminal NLS; hairpin
ZJHK Type V-A Cas = target: T1, ZJHK Type V-A Cas (unidentified)
T1 chain: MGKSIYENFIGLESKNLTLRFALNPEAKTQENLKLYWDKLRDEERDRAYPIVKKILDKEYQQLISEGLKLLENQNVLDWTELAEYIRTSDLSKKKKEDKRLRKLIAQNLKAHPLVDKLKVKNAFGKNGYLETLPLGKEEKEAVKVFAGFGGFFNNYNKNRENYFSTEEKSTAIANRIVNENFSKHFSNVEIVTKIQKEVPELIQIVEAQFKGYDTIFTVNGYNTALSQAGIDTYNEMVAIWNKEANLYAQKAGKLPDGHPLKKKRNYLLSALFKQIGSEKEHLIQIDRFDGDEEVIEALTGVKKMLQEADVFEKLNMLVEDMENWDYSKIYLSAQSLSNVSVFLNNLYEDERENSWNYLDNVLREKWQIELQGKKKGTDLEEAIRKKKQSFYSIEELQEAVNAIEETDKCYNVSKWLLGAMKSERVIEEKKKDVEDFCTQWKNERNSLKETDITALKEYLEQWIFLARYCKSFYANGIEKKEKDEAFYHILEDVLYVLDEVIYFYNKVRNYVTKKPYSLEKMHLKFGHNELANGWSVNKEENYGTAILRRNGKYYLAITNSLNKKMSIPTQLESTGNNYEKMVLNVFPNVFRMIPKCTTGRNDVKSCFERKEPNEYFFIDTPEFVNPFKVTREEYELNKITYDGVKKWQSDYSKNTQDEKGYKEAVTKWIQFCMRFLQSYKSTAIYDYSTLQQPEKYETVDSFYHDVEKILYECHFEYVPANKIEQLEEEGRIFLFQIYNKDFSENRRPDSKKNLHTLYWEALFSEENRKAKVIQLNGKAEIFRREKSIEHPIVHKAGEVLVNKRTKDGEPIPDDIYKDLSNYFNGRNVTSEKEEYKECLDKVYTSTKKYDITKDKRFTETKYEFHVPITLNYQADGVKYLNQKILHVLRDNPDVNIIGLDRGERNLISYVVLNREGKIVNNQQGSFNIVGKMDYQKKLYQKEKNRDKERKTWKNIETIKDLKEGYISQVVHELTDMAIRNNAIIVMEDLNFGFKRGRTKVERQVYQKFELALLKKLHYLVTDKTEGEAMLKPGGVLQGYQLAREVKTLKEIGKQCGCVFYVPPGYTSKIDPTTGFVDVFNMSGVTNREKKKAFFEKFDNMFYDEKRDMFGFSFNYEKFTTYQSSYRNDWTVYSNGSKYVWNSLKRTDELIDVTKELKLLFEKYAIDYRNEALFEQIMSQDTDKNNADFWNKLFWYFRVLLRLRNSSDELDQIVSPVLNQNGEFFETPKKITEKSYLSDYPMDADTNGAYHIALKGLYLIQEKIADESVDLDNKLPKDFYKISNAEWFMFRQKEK

ZZGY Type V-A Cas = target: T2, ZZGY Type V-A Cas (unidentified)
T2 chain: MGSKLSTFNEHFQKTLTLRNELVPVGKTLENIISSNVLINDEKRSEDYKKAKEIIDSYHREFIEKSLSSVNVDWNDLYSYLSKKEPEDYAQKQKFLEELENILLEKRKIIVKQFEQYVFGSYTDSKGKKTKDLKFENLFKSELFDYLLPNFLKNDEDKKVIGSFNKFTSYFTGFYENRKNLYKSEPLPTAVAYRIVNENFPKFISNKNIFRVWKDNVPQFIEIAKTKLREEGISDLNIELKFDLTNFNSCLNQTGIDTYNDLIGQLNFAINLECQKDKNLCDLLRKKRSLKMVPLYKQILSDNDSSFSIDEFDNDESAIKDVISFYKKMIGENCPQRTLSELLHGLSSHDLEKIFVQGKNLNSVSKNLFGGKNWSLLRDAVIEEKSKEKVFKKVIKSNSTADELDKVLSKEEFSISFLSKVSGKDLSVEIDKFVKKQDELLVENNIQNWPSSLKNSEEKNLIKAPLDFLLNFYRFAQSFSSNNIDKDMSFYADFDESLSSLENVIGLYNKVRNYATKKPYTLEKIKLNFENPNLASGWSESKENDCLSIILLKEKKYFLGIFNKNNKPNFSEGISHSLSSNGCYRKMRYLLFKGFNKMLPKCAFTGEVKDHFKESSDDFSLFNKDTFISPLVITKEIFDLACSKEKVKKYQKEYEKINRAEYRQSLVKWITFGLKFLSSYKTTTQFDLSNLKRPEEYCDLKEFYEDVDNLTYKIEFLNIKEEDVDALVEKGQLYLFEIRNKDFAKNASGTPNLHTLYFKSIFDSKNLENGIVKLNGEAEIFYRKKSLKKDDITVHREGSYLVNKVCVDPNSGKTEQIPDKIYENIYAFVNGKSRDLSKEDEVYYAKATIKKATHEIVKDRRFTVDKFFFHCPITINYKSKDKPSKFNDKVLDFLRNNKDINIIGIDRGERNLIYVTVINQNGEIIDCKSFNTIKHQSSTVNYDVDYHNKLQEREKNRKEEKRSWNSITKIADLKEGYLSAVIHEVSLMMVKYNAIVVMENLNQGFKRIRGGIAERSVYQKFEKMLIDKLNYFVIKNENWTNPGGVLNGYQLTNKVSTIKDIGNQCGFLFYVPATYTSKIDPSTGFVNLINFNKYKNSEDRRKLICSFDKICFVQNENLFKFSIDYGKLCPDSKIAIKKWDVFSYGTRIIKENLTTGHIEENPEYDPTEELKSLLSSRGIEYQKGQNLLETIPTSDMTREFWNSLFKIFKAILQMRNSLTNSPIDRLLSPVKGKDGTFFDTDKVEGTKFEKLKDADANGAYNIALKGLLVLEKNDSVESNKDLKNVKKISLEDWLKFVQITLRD

ZXPB Type V-A Cas = target: T3, ZXPB Type V-A Cas (unidentified)
T3 chain: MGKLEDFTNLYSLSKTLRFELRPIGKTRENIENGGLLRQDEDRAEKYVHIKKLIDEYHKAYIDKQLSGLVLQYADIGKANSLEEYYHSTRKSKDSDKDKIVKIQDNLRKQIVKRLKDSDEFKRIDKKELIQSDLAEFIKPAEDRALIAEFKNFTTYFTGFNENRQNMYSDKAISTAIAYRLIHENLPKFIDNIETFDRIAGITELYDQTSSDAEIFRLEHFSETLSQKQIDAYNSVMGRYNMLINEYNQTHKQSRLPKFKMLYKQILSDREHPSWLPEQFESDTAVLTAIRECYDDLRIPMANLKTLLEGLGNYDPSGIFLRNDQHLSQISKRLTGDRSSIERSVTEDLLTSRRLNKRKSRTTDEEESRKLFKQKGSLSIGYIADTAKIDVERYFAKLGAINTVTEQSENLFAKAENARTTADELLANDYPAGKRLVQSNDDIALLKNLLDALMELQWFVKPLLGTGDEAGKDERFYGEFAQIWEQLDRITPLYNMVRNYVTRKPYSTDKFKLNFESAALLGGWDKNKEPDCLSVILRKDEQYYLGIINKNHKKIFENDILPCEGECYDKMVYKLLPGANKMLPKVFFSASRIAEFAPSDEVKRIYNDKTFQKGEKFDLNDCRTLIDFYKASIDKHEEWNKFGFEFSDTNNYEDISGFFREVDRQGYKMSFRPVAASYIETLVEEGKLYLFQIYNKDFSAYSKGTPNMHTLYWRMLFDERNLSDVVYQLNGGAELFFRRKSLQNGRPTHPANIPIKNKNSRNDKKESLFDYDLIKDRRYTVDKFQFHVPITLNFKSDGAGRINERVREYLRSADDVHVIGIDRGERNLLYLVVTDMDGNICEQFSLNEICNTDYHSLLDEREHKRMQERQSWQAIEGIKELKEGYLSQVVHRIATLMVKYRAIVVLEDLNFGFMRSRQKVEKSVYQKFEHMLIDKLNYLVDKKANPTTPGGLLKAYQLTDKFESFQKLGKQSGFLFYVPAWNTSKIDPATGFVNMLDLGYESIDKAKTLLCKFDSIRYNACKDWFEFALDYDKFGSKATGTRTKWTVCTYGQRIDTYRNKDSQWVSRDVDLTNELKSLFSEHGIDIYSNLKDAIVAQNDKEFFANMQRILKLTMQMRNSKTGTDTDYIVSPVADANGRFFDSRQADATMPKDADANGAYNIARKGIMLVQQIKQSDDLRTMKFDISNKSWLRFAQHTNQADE

B1: ZJHK crRNA EGFP-g1 ; EGFP-g1 target (ssRNA ; dsDNA)
RNA: CUUUGAAAGAAUAUAAUUUCUACUGAAAGUGUAGAUCGUCGCCGUCCAGCUCGACCAGG
DNA 1: TTTACGTCGCCGTCCAGCTCGACCAGG
DNA 2: CCTGGTCGAGCTGGACGGCGACGTAAA
activity (ZJHK Type V-A Cas): > 20 % EGFP KO

B2: ZZGY crRNA EGFP-g1 ; EGFP-g1 target (ssRNA ; dsDNA)
RNA: UCUAAAGCUCUUUAAGAAUUUCUACUUUCGUAGAUCGUCGCCGUCCAGCUCGACCAGG
DNA 1: TTTACGTCGCCGTCCAGCTCGACCAGG
DNA 2: CCTGGTCGAGCTGGACGGCGACGTAAA
activity (ZZGY Type V-A Cas): > 20 % EGFP KO

B3: ZXPB crRNA EGFP-g1 ; EGFP-g1 target (ssRNA ; dsDNA)
RNA: GGCUAUAAAAGCCAUAUAAUUUCUACUAUUGUAGAUCGUCGCCGUCCAGCUCGACCAGG
DNA 1: TTTACGTCGCCGTCCAGCTCGACCAGG
DNA 2: CCTGGTCGAGCTGGACGGCGACGTAAA
activity (ZXPB Type V-A Cas): > 20 % EGFP KO
